From the nanobody polyreactivity screen of Harvey et al. (2022)

Assay: yeast display, Sf9 membrane polyspecificity reagent, FACS + sequencing; frameworks hold sequencing errors
Outline: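 Galactose induction of a Saccharomyces cerevisiae BJ5465 synthetic nanobody display library ran 36–48 hours. The cells were then stained for 1 hour at 4 °C with 10% biotinylated, detergent-solubilized Sf9 membrane reagent, pulled down on streptavidin microbeads and FACS-sorted into low and high (top ~1%) gates on expression and reagent-binding fluorescence. Labels for polyreactivity follow the gate of origin.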

Sequence	polyreactivity (PSR sort gate)
QVQLVESGGGLVQAGGSLRLSCAASGSTFVSYAMGWYRQAPGKERELVAAISISDSSTYYADSVKGRFTISRDNAKKTVYLQMNSLKPEDTAVYYCNRYDYWGQGTQVTVSS	low polyreactivity
QVQLVESGVGLDQAGGSLRLSCAASGSTFFVNAMGWYRQAPGKEMELVAAISTSGGRTYYADSVKGRFRISRDNAKNNLYLQMKSLKPEDTAVYYGAAVSLSGGYGEYDYWGQGTKVTVSS	high polyreactivity
QVQLVESGGGLVQAGASLRLSCAASGSIFGGYGMGWYRQAPGKERELVAAITSRVGSTYYADSVKGRFTSSRDNAKNTVYLQLNSLNPEDTAVYYCAAKRIYSWGRWTGDYWGQGTQVTVSS	high polyreactivity
QVHLVESGGRLVQAGGSLRLSCAASGSTFTINVMGWYRQAPGKERELVADISWSGGSTYYADSVKGRFTISRDNAKNTVYSQMNSLYPVYTAVSYCATDGAYWTYYSWYDYWGQGTQVTVSS	low polyreactivity
QVQLVESGGGLVQAGGSLRLSCAASGSIFSSNAMGWYRQAPGKDRELVASISWTGGNTYADSVKGRFTISRDNAKNTVYLQMNSLKPEDTAVYYCNAGRSWDYWYGYDYWGQGTQVTVSS	low polyreactivity
QVQLVESGGGLVQAGGSLRLSCAASGSTFVYYDMGWYRQAPGKERELVAAITGSVDSTYYADSVKGRFTISRDNAKNTVYLQMNSLKPEDTAVYYCAADTYSTYWGQGTQVTVSS	low polyreactivity
QVQLVESGGGLVQAGGSLRLSCAASGFIFRGNARGWYRQAPGKERELVAAISVRGGRTYYADSVKGRFTISRDNAKNTVYLQMNSLKPEDTAVYDCAADLYNRGRGSSQSYRTGYDYWGQGTQVTVSS	high polyreactivity
QVQLVETGGGLVHAGGSLRLSCAASGSIFDAYAMGWYRQAPGKERELFASITSGGRTNYADSVKGRFTISRDNAKNTVYLQMNSLKPEDTAVYYCAKVRTRATPGLDYYYWGQGTQVTVSS	high polyreactivity
QLQLVESGGGLVQAGGRLRLSCAASGRTLGKYAMGWYRQAPGKEREFVAAISSSGSRTFYADSVKGRFTISRDNAKYTVSLQMNSLKPEDTAVYYCAADYYSRGYGYWGQGTQVTVSS	high polyreactivity
QVQLVESGGGLVQAGGSLRISCAASGSTSTGMTWDGIDRRLGRKELVAGIRSAGSTNYADSVKGRFTISRDNAKNTVYLQMNSLKPEDTAGYYCAKDYRWVWRKYGYWGQGTQVTLSS	low polyreactivity
QVQLVESGGGLVQAGGSLRFTCAASGRIFRTNAMGWYRQAHGKEREFVAAISKDGGRTYYADSVKGRFTISRDNAKNTVYLQMNSLKPEDTAVFYCNVLVKHSTTTYSTYDYWGQGSQVTVSS	high polyreactivity
QVQLVESGGGLVQAGGSLRLSCAASGITFTDYAMGWYRQAPGKERELVAAISSRGGSTYYADSVQGRFTISRDNAKNTVYVQMNSLKPEDTAVHYCNARFVRRGSGYDYWGQGTQVTVSS	high polyreactivity
QVQLVESGGGLVQAGGSLRLSCAASGITFYRYVMGWYRQAPGKERELVAAITSRGGSTSYADSVKGRFTISRDNAKNTVYLQMNSLKPEDTAVYYCAAVYRRDYDYWGQGTQVTVSS	high polyreactivity
QVQLVESGGGLVQAGGSLRLSCAASGITFTYYARGWYRQAPGKEMELVAAISWSGGSTYYADSVKGRFTISRDNAKNTVYLQMNSLKPEDTAVYYCAATFSRFAYYYWGQGTQVTVSS	high polyreactivity
QVQLVESGGGLVQAGGSLRLSCAASGSIFKYNAMGWYRQAPGKERELVAAITYSGGSTYYADSVKGRFTISRDNAKNTVYLQMNSLKPEDTAVYYCNAYRRFSAFDYWGQGTQVTVSS	high polyreactivity
QVQLVESGGGLVQAGGSLRLSCAASGIIFWRHVMGWYRQAPGKERELVATISTRGGNTYYADSVKGRFTISRDNAKNTVYLQMNSVKPEDTAVYYCAAGKNGYTYSRSYSYGYWGQGTQVTVSS	high polyreactivity
QVQLVESGGGLVQGGGSLRLSCAASGLIFYRNDMVWNRQAPGKERELVDAISKNGANTYYADSVKGRFTSSRDNAKNTVYLHMNCLKREDTAVYYCAKGVYYPWWYVQPEHDYWGQVTQVTVSS	high polyreactivity
QVQLVESGGGLVQAGGSLRLSCAASGRTFLYNARGWSRQAPGKEMELVAAITKSGGSKYYADSVKGRFTISRDNAKNTVYLQMNSLKPEDTAVYYCAAARRYYTYYREDYYYWGQGTQVTVSS	high polyreactivity
QVQLVESGGGLVQAGGSLRLSCAASGFTFYRYTMGRYRQAPGKERELVAAITWSGGNTYYADSVKGRFTISRDNAKNTVYLQMNSLKPEDNAVYYCAAYKPYSKYNYWGQGTQVTVSS	high polyreactivity
QVQLVESGGGLDQAGGSLRLSCAASGFIFKYYVMGWYRQAPGKERELVAAISLSDARTNYADSVKGRFTISRDNAKNTVYLQMHSLKPVDTAFYYCAAKSHYYTSGHRHYDYWGQGTQVTVSS	high polyreactivity
QVQLVESGGGLVQAGGSLRLSCAASGRIFGVYAMGWYRQAPGKERQLVAAITARGGSTYYADSVKGRFTISRDNAKNTVYLQMNSLKPEDTAVYYCATRLYKRTRTITYGYWGQGTQVTVSS	high polyreactivity
QVQLVESGGGLVQAGGRLRLSCAASGIIFTVYAMGWYRQAPGKERELVAAITSSGGRTYYADSVKGRFTISRDNAKNTVYLHMNSLKPEDTAVYYCAARLPGYVRKYDYWGQGTQVTVSS	high polyreactivity

Sequence	polyreactivity (PSR sort gate)
QVQLVESGGGLVQAGGSLRLSCAASGRTFWYYGMGWYRQAPGKERELVAAISRSGGRTYYADSVKGRFTISRDNAKNTVYLQMNSLKPEDTAVYYCVASYRRTFDYWGHGTQVTVSS	high polyreactivity
QVQLVESGRGLVQAGGSLRLSCAASGSTFVKYAMGWYRPAPGKERELVAAMNRSGASTYYADSVKGRFTISRDNAKNTVYLQMNSLKPEDTAVYYCAARFSWLGYYWGQGTQVTVSS	high polyreactivity
QFQLVESGGGLVLAGGSLRLSCAASGRTYLVNAMGWYRQAPGKERELVAVITRGGSTNYADSVKGRFTISRDNAKNTDYLQMNSLKPEDTAVYYCAKQFSPYRSYGPVVRYDYWGLGTQVTVSS	low polyreactivity
QVQLVESVGGLVQAGGSLPLSGAASGSILGFNAMGWSRQAPGKDRELVASITTSGGSTYFADSVKGRFTISRDNAKNTVYLQMNSLKPEDTAVYYCAAYRRYQFVTYYYWGQGTQVTVSS	high polyreactivity
QVQLVESGGGIVQSGGSLGLSCAASGYTFRTNVMGWYRQAPGKERELVATINWRGGSTYYADSVKGRFTISRDTAKNTVYLQMNSLKPEDTAVYYCAKTYSYYRTMDYWGQGTQVTGSS	low polyreactivity
QVQLVESGGGLVQAGGSLRLSCAASGRIFVPYAMGWYRPAPGKERELVAAITWRGGRTYYADSVKGRFTISRDNAKNTVYLQMNSLKPEDTAVYYWAARGWTVTERYYWGQGTQVTVSS	high polyreactivity
QVQLVESGGGLVQAGGSLRLSCAASGLIFRGYAMGWYRQAPGKERELVAVISSSGGITRYADSVKGRFTISRDNAKNTVYLQMNSLKPEDTAVSYCATDRAERTGYTRYVKTYNYWGQGTQVTVSS	low polyreactivity
QVQLVESGGGLVQAAGSLRLSCAASGRTLGYYAMGWYRPAPGKERELVAAITRGGSTNYADSVKGRFTISRDNAKNTVYLQMNSLKPEDTAVYYCARRGGYFWLKGDYWGQGTQVTVSS	high polyreactivity
QVQLVESGGGLVQAGGSLRLSCAASGRTFESNAMGWYRQAPGKERELVAAISYGGGTTHYADSVKGRFTISRDNAKNTVYLQMNSLKPEDTAVYYCAADPEHQWESVTIGEYDYWGQGTQVTVSS	low polyreactivity
QVQLVESGGGLVQAGGSLRLSCAASGFTFRLYAMGWYRQAPGKERELVATITRRGGITTYADSVKGRFTISRDNAKNTVYLQMNSLKPEDTAVYYCNAGKYVYATSQYDYWGQGTQVTVSS	high polyreactivity
QVQLVESGGGLGQAGGSLRLSCAASGRIFAGYAMGWYRQAPGKERELVAAISWSGSSTHYADSVKGRFTISRDNAKNTVYFQMNSLKPEDTAVYYCAADLKDTRLFPWFFEYDYWGQGTQVTVSS	low polyreactivity
QVQLVESGGGLVQAGGSLRLSCAATGSTFYHYAMGWYRQAPGKEREFVAAISTSGGRTYYADSVKGRFTISRDNAKNTVYLQMNSLKPEDTAVYYCAARPGSWYPSVPSYNYWGQGTQVTVSS	low polyreactivity
QVQLVESGGGLVQAGGSLRLSCAASVISFARNVMGWYRQATGKERELVAGISRRGGSTYYADSVKGRFTISRDNAKNTVYLQMNSLKPEDTAVYYCAAEYIRNGDYGLDYWGQGTQVTVSS	high polyreactivity
QFQLVESGGGLDQAGGSLRLSCAASGRTFAYYALGWYRQAPGKESELVAAISSGGGSTYYADSVKGRFTISRDNAKYTFYLQMNSLKPEDTAVYYCAKERSSSRSGGTYYYWGQGTQVTVSS	high polyreactivity
QVQLVESGGGLVQAGGSLRLSCAASGRIFGFYAMGWYRQAPGKERELVAAISSRGGRTYYADSVKGRFTISRDNAKNTVYLQMNSLKPEDTAVYYCAAGDGKYGRDGDYWGQGTQVTVSS	high polyreactivity
QVQLVESGGGLVQAGGSLRLSCAASGLIFPSYAMGWYRQAPGKERELVAAITFSGSDTNYADSVKGRFTISRDNAKNTVYLQMNSLKPEDTAVYYCAAAYFDFWGWLHDYWGQGTQVTVSS	low polyreactivity
QVQLVESGGGLVQAGGSLRLICAASGSTCVDNAMGGYRPAPGKERELVADISSVGSTYYADYVKGRFTISRDNAKNTVYLQMNTLIPEDTAVYYCNRAGGYRTTFYSWGQGTQVTVSS	high polyreactivity
QVQLVESGGGLVQAGGSLRLSCAASGSTIYDYTMGWYRQAPGKERELVAAISSDGSTYYADSVKGRFTISRDNAKITVYLKMNSLKPEDTAVYYCNADAGFLSLRGYDYWGQGTQVTVSS	low polyreactivity
QVQLVESGGGLVQAGGSLRLSCAASGRIFDIYAMGWYRQAPGKERELVAAITTRGGSTYYADSVKGRFTISRDNAKNNVYLQMNSLKPEDTAVYYCAAAYSEDYRVIFYYWGQGTQVTVSS	low polyreactivity
QVQLVESGGGLVQAGGSLRLSCAASGSTFRYYTMGWYRQAPGKERELVAAISGSGGITYYADSVKGRFTMSRDNAKNNVYLQMNSLKPEDTAVYYCNAGVFYRDDYWGQGTQVTVSS	high polyreactivity
QVQLVESGGGLVQAGGSLRLSCAASGSTFTYYAMGWYRQAPGKERELVAAINYSGGSTYYADSVKGRFTISRDNAKNTVYLQMNSLKPEDTAVYYCAADGYIRQYVTYYYWGQGTQVTVSS	low polyreactivity
